Laboratory results from the supplement of paper PMC9170038.

Tested on: K4 kissing-loop RNA reporter
Assay: apparent KD of K4 kissing-loop reporter; higher = weaker reporter binding
Conditions: Eterna round: R107
Protocol: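 RNA-MaP round R107: designed RNA switches with theophylline, tryptophan, arginine or FMN aptamers are transcribed on-chip within common flanks. They are titrated with a labelled K4 kissing-loop RNA reporter in RNA-MaP buffer (100 mM Tris pH 7.5, 80 mM KCl, 4 mM MgCl2), without ligand or with the indicated ligand. Median apparent KD per design.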

[1] = input ligand: theophylline 20 uM
[2] = input ligand: tryptophan 2.4 mM
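Further: bound reporter read as fluorescence of individual clusters on recovered sequencing chips by microscopy, with normalized cluster intensities fitted with a binding model.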

Sequence	apparent KD of K4 kissing-loop reporter (input ligand: FMN 200 uM) [µM]	apparent KD of K4 kissing-loop reporter (input ligand: arginine 13.2 mM) [µM]	apparent KD of K4 kissing-loop reporter (input ligand: none) [µM]	apparent KD of K4 kissing-loop reporter [1] [µM]	apparent KD of K4 kissing-loop reporter [2] [µM]
GGUUCUGUUUUAGGUUUAGUGAUGUUGAAUCGAGGACCGGUACGGCCGCCACUCGGUGACGUCGUAACUUUGGAGGUCCUAACCA [theeternabot_exclusion_KL_Trp_A_47]	0.764	0.642	0.665	0.658	0.438
GUAAGACCGGGACUCCAGUGAUGUUGGAGGCAGGAUAUCCAGUCGAGGAGAAGGGCCAGGGAUAUCGAGCUGCUCGGUUCGUAGU [Rerareatra]	0.0818	0.101	0.103	0.107	0.0665
GUACCUUGGAAACAAGGACAGCUAACCGAAGGAGCGCGUGAAAACGCAGGUAGGUCGCGGUAGCGGAGUGAUGUUCCGCGAGAGC [Same State Arginine A GF 19]	0.114	0.0858	0.0888	0.103	0.108
GUACGCUCCCGAGUGAUGUUCGGUAAUCGCGAGGAUAUCGCUUUUGCGAGAAGGCGCGGAAUGAGGAAACUCGUUCUGAGUGUAC [FMN A 25]	0.234	0.191	0.253	0.212	0.233
GUACGCUUCCGAGUGAUGUUCGGAAAUCGCUAGGAUAUCGCUUUUGCGAGAAGGAGCGCAAUGAGGAAACUCGUUGUUAGUGUAC [FMN A 27]	0.164	0.146	0.177	0.171	0.163
GUAGACAGACUGCAAGCCUAGUCUACAGACUAGGAUAUCAGGAAACUGAGAAGGAGUCUACUUGCAGUGAUGUUGCAAGAAUAAU [[F]''-[K]'-[F]'-[F1]-[F2]-[K1]-[K2]_Design4]	0.146	0.126	0.121	0.111	0.119
GUAUAUCGAACUGAUACCAGAGAAUAUAGCAGUGAUGUUGCAUAUAUGAAUAAGACUCGACUCCCUUGGCAGCGGGAAGAUAUAC [On purpose 2]	0.132	0.169	0.137	0.166	0.142
GUAUCGCUAGGAGGAUAUUCCGUUUUUCAUAGAAAUGGCUAUGCGGAGUGAUGUUCCGAUUUACCGGAAGAAGGCCUAGUGAUAC [FMN B 23]	0.106	0.132	0.149	0.142	0.142
GUCCAAACACAGUGAUGUUGUGAAUAUGAAGGAGCGGACGAAAGUCCAGGUAGGUCGCAUAAAGGACACCUACGAAAAGUAGGAA [#SwitchBubble 5 #K4Early]	0.172	0.201	0.228	0.222	0.159
GUCCCAGUGAUGUUGGUAGGCGAGCGGGAUACCAGCCAAGACUCAGGCCCUUGGCAGCCCACAUAUCCCACGUAGGGAUUAGCUC [Same State - Theophylline A (Freestyle 19)]	0.212	0.198	0.223	0.256	0.173
GUGCAAAGCACCGGCACGAGCAGCCUAAAGGAGGAUAUGACGAAAGUCAGAAGGCCUAGUGAUGUUAGGCCUUGCUUGAGUCGAA [Omei KL FMN A Exc B v1]	0.131	0.137	0.169	0.183	0.151
GUGCGCGCGGCGGCCGCCACUCGCAUGAGAGUGAUGUUCUCGGGACUGACGCAAGUCAGUCAUGUGAGGACCGGGCCGGGCUGCG [#2 Same State - Tryptophan B Attempt #12 (HarryS)]	1.06	1.64	0.447	0.769	0.423
GUGUAAGUGAUGUUUGCACACACGUCGGAUACCAGAGACUUUAGCCUCCCUUGGCAGCCGCCGGCCAUAAGAGCAAGUCGAUUUA [theeternabot_sameState_KL_Theo_A_20]	0.197	0.186	0.21	0.194	0.176
GUUACGCAUGGAAGGAGCGCGAUAAUAUUAAGUGAGUGAUGUUCACAAAGAAAAUAAAUAACGCAGGUAGGUCGCCAUGUGUAAC [Ex Arginine B K4 4]	0.0793	0.0931	0.0808	0.0978	0.0818
GUUACGCAUGGAAGGAGCGCGAUUAAAUUUAGUGAGUGAUGUUCACAAAAUAAAACUAAAACGCAGGUAGGUCGCCAUGUGUAAC [Ex Arginine B K4 2]	0.171	0.196	0.188	0.199	0.159
GUUGAUCAUGGAAGGAGCGCCCAUUGUCGACACGAGUGAUGUUCGUGUCGUUGAUUACGAGGGCAGGUAGGUCGCCGUGUGCUUU [Rabele]	0.149	0.109	0.124	0.116	0.119
GUUUGGCGGACGGCCGCCACUCGGACGAGUCACAGUGAUGUUGUGGUUUGCCAGUCGACUUCAUCGAGGACCGGGUUUGUCGGGC [Exclusion Tryptophan B GF 20]	0.363	0.276	0.395	0.314	0.379
UAACAGGCCCUCACCGUCUUAUUUACAGACCGAGGACCGGUACGGCCGCCACUCGUGAAGUGAUGUUUCAAACAAGCGGUAGGAU	0.721	0.467	0.685	0.48	0.328
UAAUAAAUUCCAGCGAUAUCGCUCUUCGAAGGAGCGGACGAAAGUCCAGGUAGGUCGCGAAGAGUGAUGUUCUUUGCGGCGCUGG [Omei KL Arginine A Exc A v4]	0.207	0.18	0.262	0.32	0.226
UAAUUUAUCGCAGGAUAUAGCCAUAAACCGGUCCUAAGGGACCUUCUGGGCAGUGAUGUUGCCCGGCUAGAAGGGCGAGUUCACC [Anenlagema]	0.115	0.105	0.116	0.103	0.105
UAAUUUAUGUCUUUAAUAUAAUAAUCAGAUACCAGUGAUUUAUGACACCCUUGGCAGCUGUAUAGAGUGAUGUUCUUAUGCUUAA [JR_ExcTheophyA_Sub011]	0.247	0.324	0.278	0.375	0.179
UACAAACGUAGUGAUGUUACGUACUCUGAUACCAGACAACUCUAAGUCCCUUGGCAGCAGUCAUUUUGCUUAUUAUUUUCUCAAA [JR_ExcTheophyA_Sub018]	0.0865	0.102	0.092	0.0985	0.0752

Sequence	apparent KD of K4 kissing-loop reporter (input ligand: FMN 200 uM) [µM]	apparent KD of K4 kissing-loop reporter (input ligand: arginine 13.2 mM) [µM]	apparent KD of K4 kissing-loop reporter (input ligand: none) [µM]	apparent KD of K4 kissing-loop reporter [1] [µM]	apparent KD of K4 kissing-loop reporter [2] [µM]
UAGACCUACUCAGGAUAUCCGCAGUGAUGUUGCGGUUGGCCUGAGCGACAUGAAAAUCUUACUAAAGGAGAAGGGAGAGGGUUAC [Ratiteus]	0.123	0.0792	0.0943	0.0697	0.0884
UAGGAGUGAUGUUCCAUAUCUUGAGCCGAAGGAGCGGCAUUAUAGCCAGGUAGGUCGCGGCAGAAGGUACCAGUGAUGUUGGAAA [Same State Arginine A GF5]	0.182	0.16	0.206	0.202	0.173
UAGGAGUGAUGUUCCUUUAGCAGGUAGGAAGGAGCGCCCAUUUGGGCAGGUAGGUCGCCUACUGGCCCUGAGUUAAACCUUAGGC [#11 K4 Arginine A Same State]	0.149	0.181	0.15	0.207	0.127
UAGUCCUAGUGAUGGUCAUCACGUGGUGGGCGAGGACCGGUACGGCCGCCACUCGACUUUGCAGUGAUGUUGCAAACCGGACAAU [Exclusion - Tryptophan A (Freestyle 19)]	0.333	0.322	0.311	0.354	0.298
UAUAUAUGAUGUGAUACCAGUGAAAAGCCAGUGAUGUUGGUAGAACUGGUAUAUAAAUGGCACCCUUGGCAGCACAAUCACGUAU [#28 K4 Theophylline B Exclusion]	0.119	0.108	0.114	0.12	0.117
UAUAUAUGAUGUGAUACCAGUGAAGAGCCAGUGAUGUUGGUAGAACUGGUAUAUAAAUAACACCCUUGGCAGCACAAUCACGUAU [whbob_Ex_Theo_B_sa97]	0.16	0.152	0.17	0.212	0.164
UAUGGCGAGGGCCGCAUAUCAUUAAACCAGAAGGAUAUAUGUUACUAUAGAAGGUCUGCCGCUGCGAGUGAUGUUUGGAGUGAUC [theeternabot_sameState_KL_FMN_A_3]	0.326	0.195	0.26	0.242	0.229
UAUUAAUUGUCAGGAUAUCGAAAUCGAGUGAUGUUCGUAUAUCGACGAUAGUCGAUAUUAUUUAUACGAGAAGGGACAUUAUUUA [JR_SSFMNB_Sub003]	0.347	0.572	0.615	0.615	0.386
UAUUCUGUUCGAAAGAACGGAAUUUCGGAAGGAGCGAGAGAAAUCUCAGGUAGGUCGCCGAAAUUAUUAGGUAGUGAUGUUACCU [Arginine A K4 5]	0.126	0.116	0.142	0.124	0.123
UCCGUUGCGGCGGCCGCCACUGACUUAUUGAUUAGGUUGCCAGUGAUGUUGGCCACCGGUCAAUACAGGACCGGGCCAUAGCGGG [Retive]	0.16	0.208	0.259	0.148	0.11
UCCUAGGCUCGAAAGAGCCUAGGAUUAACUCAGGAUAUCCGGAAACGGAGAAGGGAGUAACUAGUGAUGUUAGGGAUUCCCUAUU	0.208	0.094	0.109	0.0879	0.0927
UCCUAGGCUCGAAAGAGCCUAGGAUUUACUCAGGAUAUCCGGAAACGGAGAAGGGAGUAACUAGUGAUGUUAGGGAUUCCCUAUU	0.552	0.113	0.123	0.131	0.125
UCCUAGGCUCGAAAGAGCCUAGGUAAGACUCAGGAUAUCUGGAAACAGAGAAGGGAGCUACUAGUGAUGUUAGGAAUUCCCUAAG	0.126	0.097	0.124	0.119	0.106
UCCUGCAAUCGACCACGAAAGUGGAUCGAUACCAGAGUCGAAAGACUCCCUUGGCAGCGAGUGAUGUUCGAAGCAGGUAAAUAAA [#SwitchBubble 22 #K4Late]	0.52	0.383	0.453	0.464	0.383
UCCUGCAAUCUGCCACGAAAGUGGAUUGAUACCAGAGUCGAAAGACUCCCUUGGCAGCGAGUGAUGUUCGACGCAGGUAAAUAAA [MatMod 5 - Jieux - Exclusion - Theophylline A]	0.142	0.224	0.178	0.234	0.135
UCCUGCAAUGGACCACGAAAGUGGAUCGAUACCAGAGUCGAAAGACUCCCUUGGCAGCGAGUGAUGUUCGAAGCAGGUAAAUAAA [#SwitchBubble 21 #K4Late]	0.492	0.483	0.478	0.41	0.358
UCGAGUUGACGAAGAGUCAACUCGUGUGAUACCAGUGACGAAAGUCACCCUUGGCAGCACUAUGCUAGUGAUGUUGGUAUUUAAG [#08 K4 Theophylline A Same State]	0.19	0.0927	0.179	0.105	0.127
UCUAACGUUGAGGCGGCAGCGGGCCCAUCUAAGGAUAUCGGUUUACCGAGAAGGUAGUUGGACGAGAGUGAUGUUCUAUUGAGAG [theeternabot_sameState_KL_FMN_A_18]	0.207	0.211	0.254	0.642	0.159
UCUGGAGGAUAUGAUACCAGCAGUGAGAGAGAGGAAGUAUAGUGAUGUUAUAUGAGAGAAUGCCCUUGGCAGCGUGUGUAGUGGG [SSTheophylB.L]	0.175	0.137	0.135	0.151	0.0866
UCUGGUAUAUCUGAUACCAGAGUAUAGUAUCAAUUGCAUAUGGAGUGAUGUUCCAUAUAACUCCCUUGGCAGCAGAUCUAUCUCU [Same State Theophylline B GF 25]	0.292	0.308	0.325	0.386	0.288
UGACAUUGCUCAGAUACCAGACAAGAGGAUCACCCUUGUGCCAAACGUACAAUAAUAAUUGUCCCUUGGCAGCUGAGCAAUGUCU [TheoBX 14]	0.0732	0.0254	0.0163	0.0807	0.0516
